The test concerns the target Methyl binding domain (MBD) of MeCP2, wild-type (UniProt P51608 90-162). The test is described as follows: ITC. In general terms: Isothermal titration calorimetry measures the heat released or taken up as one component is titrated into another.

Where no end group is shown, it is not given here.

Methyl binding domain (MBD) of MeCP2, wild-type, sequence (P51608 90-162): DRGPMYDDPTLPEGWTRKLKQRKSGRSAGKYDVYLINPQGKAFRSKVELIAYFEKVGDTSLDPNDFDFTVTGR

For orientation: Kd means the free concentration of one partner at which half of the binding sites on the other are occupied at equilibrium, for simple one-to-one binding. Consider TKAARK(Me3)SAPAT [H3-derived peptide of the K27 region, trimethylated at K27], for which binding was characterised by a dissociation constant (Kd) of 12 µM. This counts as double-digit micromolar.

Consider Ac-TKAARKSAPAT-NH2 [H3-derived peptide of the K27 region, wild-type], for which the Kd was 3.4 µM.

For the origin of these results see paper PMC11039998 (Nucleic Acids Research, 2024).
